This is an account of results in paper PMC4315436.

This experiment addresses LGF2. The experiment in a line: two-hybrid; BacterioMatch II bacterial two-hybrid in E. coli reporter cells; bait in pBT as λcI fusion, prey in pTRG as RNAPα fusion; 30 ng each of bait and prey vector; HIS3 reporter, cfu on selective screening medium with 3-AT; three repeats, mean ± 1 SD.

Gal11^P (domain or fragment) registered a cfu on selective screening medium (with 3-AT) of 1000 cfu.
